B1: Azoarcus group I ribozyme (parent)
chain: GUGCCUUGCGCCGGGAAACCACGCAAGGGAUGGUGUCAAAUUCGGCGAAACCUAAGCGCCCGCCCGGGCGUAUGGCAACGCCGAGCCAAGCUUCGGCGCCUGCGCCGAUGAAGGUGUAGAGACUAGACGGCACCCACCUAAGGCAAACGCUAUGGUGAAGGCAUAGUCCAGGGAGUGGCGAAAGUCACACAAACCGG

Variants of: B1
Experiment: reverse-splicing fitness (ratio to wild type); higher = more active; in vitro selection; Mg2+ level not given
Summary of the method: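 An in vitro group I ribozyme library with randomized positions was T7-transcribed and gel-purified. In triplicate, 10 pmol RNA in EPPS pH 7.5 was reacted with 50 pmoles of a 30-nt RNA substrate for 1 h at 37 °C across several added MgCl2 levels (1–48 mM), then stopped with EDTA. Products were reverse transcribed from a substrate-complementary primer, PCR-amplified and sequenced (HiSeq 4000). Fitness is a variant's read proportion after selection over that before, normalised to wild type.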

Variant | reverse-splicing fitness
C82G A111U A120U C169U U176C | 0.00393
C82G A111U A145C U176C | 0.224
C82G A111U A145C U176A | 0.19
C82G A111U A145C U176G | 0.0756
C82G A111U A145C C150U C169G U176C | 0.0132
C82G A111U A145C C150U C169G U176G | 0.00635
C82G A111U A145C C150U C169G U176A | 0.022
C82G A111U A120U A145U C150G C169G U176G | 0.0021
C82G A111U A120U A145U C150G C169G U176A | 0.0031
C82G A111U A120U A145U C150G C169G U176C | 0.00282
C82G A111U A120U A145U C150A | 0.00721
C82G A111U A120U A145U C150G | 0.00782
C82G A111U A120U A145U C150U | 0.0274
C82G A111U A120U A145U C150G C169A U176A | 0.00343
C82G A111U A120U A145U C150G C169A U176C | 0.00246
C82G A111U A120U A145U C150G C169A U176G | 0.00233
C82G A111U A120U C150A U176C | 0.00858
C82G A111U A120U C150A U176A | 0.00758
C82G A111U A120U C150A U176G | 0.00383
C82G A111U A120U A145U C169A | 0.00258
C82G A111U A120U A145U C169G | 0.00331

Variant | reverse-splicing fitness
C82G A111U A120U A145U C169U | 0.00419
C82G A111U A145U | 0.387
C82G A111U A145G | 0.424
C82G A111U A145C | 0.365
C82G A111U A145G C150G C169U U176C | 0.0134
C82G A111U A145G C150G C169U U176A | 0.0125
C82G A111U A145G C150G C169U U176G | 0.00808
C82G A111U A145G C150U | 0.298
C82G A111U A145G C150G | 0.0339
C82G A111U A145G C150A | 0.0434
C82G A111U A145G C150G C169A U176C | 0.0129
C82G A111U A145G C150G C169A U176G | 0.00877
C82G A111U A145G C150G C169A U176A | 0.0133
C82G A111U A145U C150A C169G | 0.00845
C82G A111U A145U C150A C169A | 0.0096
C82G A111U A145G C169G U176G | 0.00557
C82G A111U A145G C169G U176A | 0.0187
C82G A111U A145G C169G U176C | 0.0258
C82G A111U A145C C169A U176A | 0.0121
C82G A111U A145C C169A U176C | 0.00791
C82G A111U A145C C169A U176G | 0.00501

Variant | reverse-splicing fitness
C82G A111U A120U U176A | 0.0109
C82G A111U A120U U176G | 0.00464
C82G A111U A120U U176C | 0.0167
C82G A111U A145G C150U C169U | 0.0119
C82G A111U A145G C150U C169A | 0.0114
C82G A111U A145G C150U C169G | 0.00982
C82G A111U A120U A145G C150A U176C | 0.00757
C82G A111U A120U A145G C150A U176G | 0.00383
C82G A111U A120U A145G C150A U176A | 0.00769
C82G A111U A145G C150G C169G U176A | 0.0107
C82G A111U A145G C150G C169G U176G | 0.0062
C82G A111U A145G C150G C169G U176C | 0.0129
C82G A111U A120U A145G U176G | 0.00338
C82G A111U A120U A145G U176A | 0.0121
C82G A111U A120U A145G U176C | 0.0173
C82G A111U A120U C169A U176C | 0.00299
C82G A111U A120U C169A U176A | 0.00362
C82G A111U A120U C169A U176G | 0.00169
C82G A111U A120U A145U C150U C169U U176G | 0.0023
C82G A111U A120U A145U C150U C169U U176A | 0.00325
C82G A111U A120U A145U C150U C169U U176C | 0.00369

Variant | reverse-splicing fitness
C82G A111U A120U A145U C150A C169A U176C | 0.00255
C82G A111U A120U A145U C150A C169A U176A | 0.00349
C82G A111U A120U A145U C150A C169A U176G | 0.00209
C82G A111U A120U A145G C150G C169A | 0.00873
C82G A111U A120U A145G C150G C169G | 0.00714
C82G A111U A120U A145G C150G C169U | 0.00767
C82G A111U A145C C150G C169G | 0.00784
C82G A111U A145C C150G C169U | 0.00915
C82G A111U A145C C150G C169A | 0.00892
C82G A111U A120U A145U C169A U176G | 0.00176
C82G A111U A120U A145U C169A U176A | 0.00292
C82G A111U A120U A145U C169A U176C | 0.00203
C82G A111U A120U A145C U176C | 0.0125
C82G A111U A120U A145C U176A | 0.00848
C82G A111U A120U A145C U176G | 0.00404
C82G A111U A120U A145C C169U U176G | 0.00178
C82G A111U A120U A145C C169U U176C | 0.00238
C82G A111U A120U A145C C169U U176A | 0.00287
C82G A111U A145C C150A C169A | 0.00868
C82G A111U A145C C150A C169G | 0.00822
C82G A111U A145C C150A C169U | 0.0105
